Reference: patent US12162937B2, “Methods of treating an inflammatory disorder by administering an antibody which binds to a connexin CX43 hemichannel” (BOARD OF REGENTS OF THE UNIVERSITY OF TEXAS SYSTEM, priority 2013, dated 2024)
Entries after “also recorded” stand apart in the source; their conditions may differ. Like-named read-outs stand apart in the source and are kept apart here.

B1: M1: mouse monoclonal antibody, heavy chain SEQ ID NO:2, light chain SEQ ID NO:4 (antibody, listed as Mus musculus)
heavy: EVQLEQPGAELVKPGASVKLSCKASGYTFTSYYMYWVKQRPGQGLEWIGGINPSNGGTNFNEKFKNKATLTVDKSSSTAYMQLSSLTSEDSAVYYCTREGNPYYTMNYWGQGTSVTVSSAKTTPPSVY
light: DIVMTQTPASLAVSLGQRATISYRASKSVSTSGYSYMHWNQQKPGQPPRLLIYLVSNLESGVPARFSGSGSGTDFTLNIHPVEEEDAATYYCQHIRELTRSEGGPSWK
B2: M2: mouse monoclonal antibody, heavy chain SEQ ID NO:6, light chain SEQ ID NO:8 (antibody, listed as Mus musculus, V domains shown)
VH: B1 heavy
VL: DIVMTQTPSSLSVSAGEKVTMSCKSSQSLLNSGNQKTYLAWYQQKPGQPPKLLIYGASTRESGVPDRFTGSGSGTDFTLTISSVQAEDLAVYYCQNDHSYPFTFGSGTKLEIKRADAAPTVS
B3: M7: mouse monoclonal antibody, heavy chain SEQ ID NO:10, light chain SEQ ID NO:12 (antibody, listed as Mus musculus)
heavy: LEQPGAELVRPGASVMLSCKASGYIFTTYWMHWLKQRPGQGLDWIGEISPSNGRSNYNKKFKSKATLTVDKSSSTAYMQLSSLTSEDSAVYYCARFDEGDFWGQGTTLIVSSAKTTAPSVYPLAPVCGDTTGSSV
light: B1 light

Experiments:
Cx43 hemichannels [1] = target: T1, Cx43 hemichannels (Mus musculus, UniProt P23242); details: MLO-A5 osteoblasts, AD treatment
T1 sequence (P23242 whole entry): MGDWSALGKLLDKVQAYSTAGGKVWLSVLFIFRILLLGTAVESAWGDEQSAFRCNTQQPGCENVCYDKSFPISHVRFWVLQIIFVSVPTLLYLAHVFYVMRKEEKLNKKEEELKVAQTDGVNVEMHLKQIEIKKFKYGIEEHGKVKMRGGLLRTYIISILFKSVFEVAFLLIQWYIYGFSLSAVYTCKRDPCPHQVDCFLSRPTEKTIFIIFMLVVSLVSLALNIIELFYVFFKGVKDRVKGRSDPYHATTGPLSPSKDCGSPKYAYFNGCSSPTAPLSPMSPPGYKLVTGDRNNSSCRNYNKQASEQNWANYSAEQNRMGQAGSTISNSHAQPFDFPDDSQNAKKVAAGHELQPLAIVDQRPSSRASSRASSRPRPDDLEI
Experimental: Ethidium bromide dye uptake was conducted and quantified as compared to non-treated basal level of uptake. Study was carried out in calcium conditions. Low calcium conditions were used as control (opens hemichannels). […] MLO-Y4 osteocytic cells were treated with 20 μM AD for 30 min in the absence or presence of 1 μg/ml Cx43(E2) antibody. Ethidium bromide dye uptake assay was conducted and quantified as compared to non-treated basal level of uptake. The assays were carried out in the presence of calcium. Low calcium conditions were used as a control (opens hemichannels).

MDA-MB-231 cells = assay: Wound healing migration assay; format: cell-based; details: cancer cells treated directly with AD
Excerpt: FIGS. 5A and 5B illustrate the results of studies using a wound healing migration assay. CM-AD from osteocytes inhibits MDA-MB-231 cell migration.
FIG. 6 illustrates results of another wound healing migration assay.
Opening of osteocytic Cx43 hemichannels mediate a negative effect on cancer cell migration. Cx43 hemichannels in osteocytes are opened by administration of AD or FFSS. The opened hemichannels permit the release of various factors into the medium producing a conditioned medium (CM). The released factor(s) in the AD- or FFSS-treated CM decrease cancer cell migration as determined by soft agar and wound healing assays. An example of a soft agar assay is diagrammed in FIG. 3. […] The soft agar assay is an assay for anchorage-independent growth, as contrasted with anchorage-dependent growth. Only cancer cells can grow on soft agar and their growth on this matrix indicates the extent of the cancer cell proliferation.
In certain aspects the methods include incubating primary osteocytes or osteocyte cell lines with a test reagent in α-MEM for various periods of time and collecting the supernatant (conditioned media) at various time points. In certain aspects breast or prostate cancer cells are incubated with CM and cancer cell proliferation, migration, and invasion are determined.

[2] = target: Cx43 hemichannels in osteocytes (Homo sapiens, UniProt P17302); details: Plotkin et al., 2002; cited from earlier work
Sequence of Cx43 hemichannels in osteocytes (P17302 whole entry): as the sequence (P23242 whole entry) above, with E124D, V164I, R243K, T251S, P253A, S257A, P263Q, S341N, A344S, V347L counted along it

[3] = target: T2, hemichannel opening in mouse bone osteocytes (Mus musculus, UniProt P23242); assay: Evans blue dye uptake in mechanically loaded tibias in vivo; details: 25 mg/kg injected 2 hr before Evans blue dye, tibia loaded 10 min
T2 construct: from tissue; host or cells: tibial bone osteocytes of living WT mice (Cx43 cKO mice as negative control)
T2 sequence (P23242 whole entry): as the sequence (P23242 whole entry) above
Experimental: FIG. 17. […] Mouse IgG or Cx43(M1) mAb (25 mg/kg) was injected 2 hr before Evans blue dye injection Into WT and Cx43 cKO mice. 30 min after dye injection, left (L) tibias were mechanically loaded once for 10 min. Mice were euthanized and perfused with 50 ml PBS. Tibias were isolated and fixed and bone tissue sections were prepared. Bar, […]. The arrowheads indicate dye uptake.
Determining the effect a compound on the opening of hemichannels in osteocytes in bone tissue in vivo. One example of an in vivo assay to analyze hemichannels in osteocytes uses 3-4 month old mice or rats. The animals are weighed. A test reagent is introduced into the animal through intraperitoneal (IP) injection. After 2-4 hours, fluorescence tracer dyes (i.e. Evans blue, Alexa 594) are injected into lateral tail vein of the animal or by IP injection. Note: up to 1% of animal's body weight in volume can be injected. In certain aspects the animal is warmed prior to tail vein injection to dilate the tail vein. After 2-4 hours, the animal is scarified and tibial and femur bones free of muscle tissues are dissected and washed multiple times with PBS. […] The bone sections can be examined under fluorescence microscope and the degree of osteocytes in the bone taking up tracer dyes are quantified using Image J. […]

Cx43 hemichannels [4] = target: T1, Cx43 hemichannels; assay: Dye uptake after fluid flow shear stress in MLO-Y4 cells; format: cell-based; parameters: endogenous in cells; host or cells: MLO-Y4 osteocytic cells; details: mAbs 20 min pretreatment, fluid flow shear stress 8 dynes/cm^2 10 min, 100 μM EtBr 5 min
Experimental: FIG. 16. […] MLO-Y4 cells were pretreated with or without mAbs for 20 min. The cells were subjected to fluid flow shear stress at 8 dynes/cm^2 for 10 min and dye uptake was performed with 100 μM EtBr for 5 min. Cells were rinsed, fixed and images were taken under fluorescence microscopy.
(§1) Dye uptake for hemichannel activities. Dye uptake measurements were evaluated using snap shot photographs. MLO-Y4 cells were plated on the collagen coated 35 mm dish and incubated with recording medium, HCO3^− free saline medium buffered with 10 mM HEPES salt composition in mM, 154 NaCl, 5.4 KCl, 1.8 CaCl2, 1.0 MgCl2, 5 Glucose. Medium with low concentration of divalent cation (low[X^2]) was added 0.5 mM EGTA but not CaCl2 and MgCl2. The recording or low[X^2] containing 50 μM EtBr for snap shot recording. Cells were exposed to 100 μM of EtBr during 5 min, then rinsed 3 times with PBS and fixed with 2% […]. At least 3 microphotographs of fluorescence fields were taken with a 10× dry objective in an inverted microscope (Carl Zeiss) with a rhodamine filter. The image analysis was made offline with the software image J. The average of pixel density of 30 random cells was measured.
Fluid flow shear stress to open hemichannels. Fluid flow was created by parallel-plate flow chambers separated by a gasket of defined thickness with gravity-driven fluid flow using a peristaltic pump. The thickness of the gasket determined the channel height, which was adjusted along with flow rate to generate stress levels of 16 dyn/cm^2. The circulating medium was α-MEM buffered with 10 mM HEPES.

[5] = target: T3, gap junctions (HeLa cells transfected with Cx43) (Homo sapiens, UniProt P17302); assay: Microinjection dye transfer (dye coupling) assay for gap junctions; format: cell-based; details: HeLa cells transfected with Cx43, mAbs for 3 h
T3 construct: expressed in transfected cells; host or cells: HeLa cells
T3 sequence (P17302 whole entry): as the sequence (P23242 whole entry) above, with E124D, V164I, R243K, T251S, P253A, S257A, P263Q, S341N, A344S, V347L counted along it
Experimental: (§2) Dye uptake assay was performed in the presence of EtBr with or without mAbs for 20 min. (B) HeLa cells transfected with Cx43 were incubated with mAbs for 3 h and a signal cell was microinjected with AlexaFluor 488 to evaluate the extent of dye transfer assayed for gap junctions.
Dye coupling assay for gap junctions. MLO-Y4 cells were plated on collagen coated 35 mm dish and incubated with recording medium (HCO3^− free αMEM medium buffered with 10 mM HEPES). Cells were microinjected using a micromanipulator InjectMan NI 2 and Femtojet both from Eppendorf (Eppendorf) at 37° C. with alexafluor 350 (Invitrogen, Eugene, Oregon, USA) (10 mM in PBS). Dye transfer was measured after 2 minutes of alexafluor 350 injection. The index of dye coupling was scored counting the number of cells that were dye transferred. Dye coupling was observed under an inverted microscope equipped with Xenon arc lamp illumination and a Nikon eclipse (Nikon, Japan) (excitation wavelengths 330-380 nm; emission wavelengths above 420 nm).

Cx43 hemichannels [6] = target: T1, Cx43 hemichannels; assay: Dye uptake assay for hemichannel activity in low Ca2+ and Mg2+ media; format: cell-based; parameters: endogenous in cells; host or cells: MLO-Y4 osteocytic cells; details: MLO-Y4 cells, mAbs for 20 min
Experimental: as §2, §1

[7] = target: T4, gap junction channels (Hela cells transfected with Cx43) (Homo sapiens, UniProt P17302); assay: Parachuting dye transfer assay for gap junctions; format: cell-based; details: Hela cells transfected with Cx43, calcein red-orange-AM / Oregon green 488 BAPTA-2-AM
T4 construct: expressed in transfected cells; host or cells: HeLa cells
T4 sequence (P17302 whole entry): as the sequence (P23242 whole entry) above, with E124D, V164I, R243K, T251S, P253A, S257A, P263Q, S341N, A344S, V347L counted along it
Experimental: FIG. 15 illustrates parachuting dye transfer assay showing M2 and M7, but not M1 blocks gap junction channels. Hela cells transfected with Cx43 was used for parachuting dye transfer experiments. Donor cells were incubated with 5 μM calcein red-orange-AM (790 Da) which is permeable to gap junctions and 5 μM Oregon green 488 BAPTA-2-AM (1752 Da) which is non-permeable to gap junctions for 40 minutes at 37° C. Donor cells were treated with trypsin and separated preloaded cells were layered (‘parachuted’) over the top of the unlabeled recipient cells at a 1:4 donor to receiver ratio. Cells were allowed to attach for 90 min. The cells were examined under a fluorescence microscope.
Cell parachute dye-transfer assay for gap junctions. MLO-Y4 cells were grown to confluence in 12 well plates. The donor cells were incubated with 5 μM calcein red-orange-AM (790 Da) and 5 μM Oregon green 488 BAPTA-2-AM (1752 Da) for 40 minutes at 37° C. Gap junction intercellular communication can be followed by simultaneously labeling cells with calcein red-orange as a gap junction permeable tracer dye and the gap junction channel impermeable dye Oregon green 488 BAPTA-2. Donor cells preloaded were remove form the plate by trypsinization. Preloaded cells were layered (‘parachuted’) over the top of the unlabeled recipient cells cultured in at a 1:4 donor to receiver ratio. Cells were allowed to attach for various periods 1 hours, and then carefully washed 3 times and fixed in fresh 2% PFA 10 min RT and rinse 3 times again. The cells were examined with a fluorescence microscope. For calcein red-orange transfer, the threshold was adjusted to clearly distinguish the dye-transfer boundaries. The dye transfer positive criterion was detecting the calcein red-orange/Oregon green 488 BAPTA-2 with contact cells calcein red-orange positive and Oregon green 488 BAPTA-2 negative. The dye transfer was almost undetectable (<1%). The images were taken in places where we found Oregon green 488 BAPTA-2 green positive cells.

| Molecule | opening of Cx43 hemichannels in osteoblasts (Cx43 hemichannels [1]) | opening of Cx43 hemichannels in osteoblasts (Cx43 hemichannels [1]; listed as alendronate) | direct effect on migration of MDA-MB-231 cells (MDA-MB-231 cells) | opening of Cx43 hemichannels in osteocytes [2] | blocking of hemichannel opening induced by mechanical loading in osteocytes in vivo [3] | blockage of hemichannel opening induced by mechanical loading (Cx43 hemichannels [4]) | blocking of gap junctions (AlexaFluor 488 dye transfer) [5] | blocking of hemichannels (EtBr dye uptake) (Cx43 hemichannels [6]) | blocking of gap junction channels (parachuting dye transfer) [7] |
| --- | --- | --- | --- | --- | --- | --- | --- | --- | --- |
| NCCCC(O)(P(=O)(O)O)P(=O)(O)O [AD, alendronate] | does not open | do not appear to open | does not have a direct effect; also recorded: not seen | induces the opening |  |  |  |  |  |
| B1 |  |  |  |  | blocks | blockage | not gap junctions | blocks hemichannels | not |
| B2 |  |  |  |  |  | not | blocks gap junctions | not hemichannels | blocks |
| B3 |  |  |  |  |  | blockage |  |  | blocks |
